The test system of one assay is C5a-induced neutropenia. As to the kind of experiment: C5a-induced neutropenia in the rabbit. Particulars: i.v. bolus; for Inhibition of C5a-induced neutropenia versus vehicle-treated rabbits: 100 ng C5a. The class given is in vivo, New Zealand White rabbits. Here is the method: All experiments were performed on male New Zealand White rabbits weighing 2.5-3.0 kg. Rabbits were anesthetized with 10 mg/kg xylazine and 50 mg/kg ketamine administered in combination intramuscularly. A 25 gauge butterfly catheter was inserted in the lateral ear vein to use for infusions. Each blood sample (0.2 ml) was collected from the central ear artery into a plastic syringe fitted with a 25 gauge, 5/8 inch needle and charged with 7.5% EDTA as an anticoagulant. Blood was immediately expressed into a microcentrifuge tubes containing 10 microliters of 7.5% EDTA. An initial arterial blood sample (#1) was obtained and immediately thereafter vehicle or the C5a analogue of Example 8 was infused intravenously (bolus injection). Twenty seconds later, a second blood sample (#2) was obtained and twenty seconds thereafter 100 ng of C5a in 0.2 ml were infused intravenously (bolus injection). Twenty seconds later, a third blood (#3) sample was taken. Thirty minutes later, a second round of blood sample (#4)----20 seconds--C5a infusion--20 seconds--blood sample (#5) was performed. Blood samples were evaluated by automated hematologic analysis (Technicon H*1) using software specific for rabbit blood. Reductions in neutrophil counts (number per milliliter) induced by C5a(C5a-induced neutropenia, determined by comparing blood sample #3 to #2 and #5 to #4) were compared between vehicle-treated and C5a analogue-treated animals.

For assay [1], the system named is C5a-induced enhancement in vascular permeability. As to the kind of experiment: Rabbit dermal model of inflammation ([125I]-BSA exudation at intradermal sites). The class given is in vivo, New Zealand White rabbits. Here is the method:
All experiments were performed on male New Zealand White rabbits weighing 2.5-3.0 kg. The backs of the rabbits were shaved and 40-50 skin sites were designated with markers of different colors. Different stimuli (i.e., C5a, C5a analogue, C5a+C5a analogue, vehicle control, etc.) were injected intradermally at 0.1 ml/site using a sterile, disposable, 26 gauge, 0.5 in. needle and 1.0 cc tuberculin syringe. I.D. injections were administered in replicates of six, roughly 45 minutes before euthanization. C5a alone was injected at a dose of 50 ng/site, and the C5a receptor antagonists were co-injected at various concentrations with the same dose of C5a. At 20 minutes prior to euthanization, 18-36 uCi of [125I]-labeled bovine serum albumin in 1.0 ml physiological saline were introduced into the systemic circulation via the marginal auricular vein. At 45 minutes, the rabbit was euthanized with an I.V. overdose of sodium pentobarbital. […]
After death, the dorsal skin was excised and pinned to a wooden dissecting board. […] This procedure reduced variation among skin sites and decreased background radioactivity. […] Injection sites were then analyzed for their radioactive content using a Gamma Counter (Genesys).

Assay [2] deals with T1, C5a receptor (Homo sapiens, UniProt P21730).
T1 construct: Neutrophils were purified from human peripheral blood; endogenous in cells; host or cells: neutrophils from human peripheral blood
T1 sequence (P21730 1-350): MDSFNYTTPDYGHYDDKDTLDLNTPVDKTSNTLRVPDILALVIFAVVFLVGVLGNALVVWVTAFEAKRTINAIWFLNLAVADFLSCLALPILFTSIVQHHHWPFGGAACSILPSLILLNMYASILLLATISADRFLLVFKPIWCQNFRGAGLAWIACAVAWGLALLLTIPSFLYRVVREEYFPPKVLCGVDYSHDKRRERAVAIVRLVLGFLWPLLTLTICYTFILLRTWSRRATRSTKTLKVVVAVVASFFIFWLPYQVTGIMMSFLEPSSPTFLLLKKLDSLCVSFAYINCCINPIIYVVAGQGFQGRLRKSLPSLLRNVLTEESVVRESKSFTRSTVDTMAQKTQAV
Nature of the assay: C5a induced Ca++ rise assay in fura-2 loaded neutrophils. The class given is cell-based. The text has this: The antagonism of the instant C5a analogues may be quantified as an IC50 in the calcium rise assay disclosed in Seligmann et al., Agents and Actions 21:375-378 (1987), described in detail in Example 7.
See Hugli et al., CRC Crit. Rev. Immunol. 1:321-326 (1981) and PCT WO 92/10205. A quantitative measure of this property may also be obtained using the calcium rise assay disclosed in Seligmann et al., supra, also described in Example 7. EC50 is a measure of agonistic activity.
Recombinant human C5a was dissolved in Hanks buffer containing 0.01% Tween-20, and all stock dilutions of C5a were made in this buffer. The acetoxymethyl ester of fura-2 (fura 2AM, Molecular Probes) was dissolved in DMSO. Neutrophils were purified from human peripheral blood by sedimentation in 6% hetastarch (HESPAN, DuPont, Waukegan, Ill., followed by counter flow elutriation as described in Chapman-Kirkland et al., J. Immunol. Meth. 142:95-104 (1991). Purified cells (2×10^6/ ml) were mixed with 0.2 uM fura- 2AM and incubated for 30 min at 37° C. in HEPES buffered Hanks solution without calcium or magnesium. Fifteen minutes before the assay, the cell suspension was transferred to a curvette containing a stir bar and calcium was added to 1 mM. The cell suspension was incubated with stirring at 37° C. Assays were terminated within 5 h of cell purification and a standard control response was obtained periodically to insure that the cell responses were not changing over the time of the experiment. The amount of fluorescence was determined using an SLM 8000 spectrofluorometer (SLM-Aminco Instruments, Urbana, Ill.). Curvettes were placed in the fluorometer and after obtaining a baseline for 10 sec, the C5a receptor antagonists to be tested for antagonistic properties were added and any change in fluoresence excitation ratio of 340 nm/380 nm (emission of 510 nm) was measured. Forty seconds after analogue addition, a challenge dose of C5a was added to a final concentration of 100 pM and the resulting change in excitation ratio was measured.
IC50 values were used as a measure of antagonist potency. These values are defined as the concentration of C5a analogue needed to reduce the calcium rise response of the 100 pM C5a challenge dose by 50%. EC50 values were used as a measure of agonist potency. […]

Assay [3] has as its target T1, C5a receptor. Nature of the assay: Receptor binding assay: displacement of [125I]Bolton-Hunter labelled C5a from PMNL membranes. Here is the method:
C5a and C5a receptor antagonists were tested for their affinity for the C5a receptor. […] PMNLs were resuspended in Hanks balanced salt solution, without Ca^++ and Mg^++ and which contained 10 mM HEPES at pH 7.3, 2.5 mM MgCl2, 100 units/ml DNAse I, 0.1 mM PMSF, 10 μg/ml aprotonin and 10 μg/ml leupeptin. They were then equilibrated at 400 psi for 20 min at 4° C. in a nitrogen cavitation bomb. After evacuation into 3 volumes 0.5M KHCO3 containing 25 mM EDTA and the protease inhibitors listed above, the gelatinous material was removed with forceps and the mixture was centrifuged at 400×g for 10 min at 4° C. The resulting supernatant was centrifuged at 50,000×g for 60 min at 4° C. The pellets from the aliquots representing 200×10^6 cells were stored at -70° C. For binding studies, these membranes were resuspended at an equivalent of 20×10^6 cells/ml in 50 mM HEPES at pH 7.3, containing 1 mM CaCl2, 5 mM MgCl2, 0.1 mM PMSF, 0.1% bacitracin and 0.5% BSA.
Nonspecific binding was determined in the presence of 10 nM unlabelled C5a. The binding reaction was initiated by the addition of the PMNL membranes and was continued for 120 min at 4° C. Bound and free radioactivity were separated by vacuum filtration through GF/C glass fiber filters (Whatman), pretreated for 90 min with 0.05% PEI (polyethyleneimine) using a Cell Harvester (Brandel, Gaithersburg, Md.). Filters were washed with 3×5 ml of ice-cold 5 mM Tris buffer at pH 7.4 and counted in a multiwell Gamma counter (Genesys). Data were analyzed using the non-linear regression analysis program, RS/1 (Bolt, Beranek and Newman, Boston) and expressed as IC50 values. The results are set forth below in Table 4 as Ki values using the Cheng-Presoff equation. See Braunwalder et al., supra.
On the technique in general: Loss of bound radioactivity is the signal in a displacement assay; it reports binding, not function.

Setting [4] is: Table 6, Example 10 comparison with decapeptide.

This note sets out measurements from US5807824A, “C5A receptor antagonists having substantially no agonist activity” (priority 1995, dated 1998).

One may read the IC50 as the concentration at which inhibition is half-maximal. Low readings indicate greater potency in that assay, high ones weaker potency in that assay. Usually Ki stands for the equilibrium dissociation constant of an inhibitor or competing ligand from its target.

B1: C5a (1-71, T1M, C27S, Q71C) (protein, UniProt P01031 678-751, looked up, variant T1M C27S Q71C)
C5a anaphylatoxin: MLQKKIEEIAAKYKHSVVKKCCYDGASVNNDETCEQRAARISLGPRCIKAFTECCVVASQLRANISHKDMCLGR
modifications: C5a anaphylatoxin
For the molecule B1, the “Effect on baseline neutrophil counts (agonistic, C5a-like properties)” value in the assay on C5a-induced neutropenia (before C5a challenge) was “did not alter baseline neutrophil counts from normal”. Moreover, the “Inhibition of C5a-induced neutropenia versus vehicle-treated rabbits” value with C5a-induced neutropenia (30-minute C5a challenge interval) is reported as 41%; with C5a-induced neutropenia (40-second C5a challenge interval) it was 67%. Besides, the “Pro-inflammatory reaction (agonist properties in vivo)” value in assay [1] (analogue at 175 ng/site intradermally) was “did not cause a pro-inflammatory reaction”. Also, the “ID50 (dose causing 50% reduction in radioactivity produced by C5a)” value in assay [1] (co-injected intradermally with 50 ng C5a/site) is 70 ng/site. Further, the IC50 with C5a receptor [2] (setting [4]) amounted to 51 nM. In addition, the “Concentration up to which tested with agonist activity not detected” value with C5a receptor [2] (calcium rise assay) is above 3 µM. Besides, the Ki worked out at 0.2 nM in the assay with C5a receptor [3] (Table 4, [125I]BH-C5a 4.0 pM, PMNL membranes, Cheng-Prusoff) and 0.04 nM in the assay with C5a receptor [3] (setting [4]).
